Measured values reported in the supplement of paper PMC10567573.
± gives the standard deviation.

Assay: protein stability index of a GFP-peptide fusion (GPS, HEK-293T) (PSI 1-6); higher = more stable
[1] = treatment: DMSO, c terminus: a fixed tail appended
[2] = treatment: MLN4924 1 uM, 8 h, c terminus: a fixed tail appended
[3] = treatment: DMSO, c terminus: native
[4] = treatment: MLN4924 1 uM, 8 h, c terminus: native
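Note: 24-mer peptide tiles fused after GFP, lentivirally expressed, FACS-sorted into six equal bins by GFP/DsRed ratio, decoded by Illumina sequencing, PSI is the read-weighted mean bin number.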

Sequence | protein stability index [1] | protein stability index [2] | protein stability index [3] | protein stability index [4]
LSSPEFSELCIWLGSQIKSLCNLE [FAM98B] | 2.17 ± 0.81 | 2.76 ± 0.82 | – | –
LSVLPQLEFKLKSNDNEERLQVVK [PDS5B] | 3.77 ± 0.11 | 3.7 ± 0.25 | – | –
LSVQQPTALALEPDAIRSRSNTLR [PCDHGC5] | 4.43 ± 0.17 | 4.56 ± 0.19 | – | –
LSWELLDSHLGGNARGMGIRSPRP [CTBP1-DT] | 3.18 ± 0.46 | 3.18 ± 0.3 | – | –
LTLVLVASVLLQAVLYPRFMGTIS [CD207] | 2.99 ± 0.28 | 3.25 ± 0.45 | – | –
LTQKKPFADEKNILHIMVKVVKGH [RIPK4] | 2.01 ± 0.18 | 1.79 ± 0.48 | – | –
LVHSAVDVPTIQEKVNEGKYRSYE [ZMYND11] | 4.47 ± 0.3 | 4.32 ± 0.2 | – | –
LVPDASKQRLMENTEDWRPRPGTG [PDLIM7] | 4.47 ± 0.2 | 4.53 ± 0.32 | – | –
LVQLRNMVQQIQENSVEFEACLVA [TRIM9] | 2.25 ± 0.1 | 2.54 ± 0.37 | – | –
LVVFAVLGFKANIMNEKCVVENAE [SLC6A17] | 2.97 ± 0.32 | 2.82 ± 0.39 | – | –
LVVNIDNAKLASDDFRSKYQTEQS [KRT34] | 3.65 ± 0.2 | 3.62 ± 0.2 | – | –
LVYENFYADFGPLNLAMVYRYCCK [CDC14A] | 2.8 ± 0.27 | 2.5 ± 0.55 | – | –
LWEAPPLGAGGGSLLPGAVEQPQP [NEK8] | 4.42 ± 0.13 | 4.36 ± 0.15 | – | –
LYYLRASKAAAGKMNLYESFAQAT [INTS3] | 2.59 ± 0.39 | 2.57 ± 0.31 | – | –
MAAGTSSYWEDLRKQARQLENELD [GOSR1] | 4.11 ± 0.15 | 3.99 ± 0.25 | – | –
MADCILVNSQFTAAVFKETFKSLS [ALG2] | 2.66 ± 0.42 | 2.73 ± 0.55 | – | –
MAESLRSPRRSLYKLVGSPPWKEA [RPAIN] | 2.73 ± 0.48 | 2.77 ± 0.53 | – | –
MAGAATGSRTPGRSELVEGCGWRC [TRIM14] | 3.46 ± 0.32 | 3.61 ± 0.26 | – | –
MAMYWGTSRWSSMEIMEAYSVARQ [KCNAB2] | 2.43 ± 0.52 | 2.06 ± 0.43 | – | –
MAPLLFNGCRSGEIFAIDLRCGNQ [DCAF4] | 2.52 ± 0.29 | 2.3 ± 0.56 | – | –
MASLGPAAAGEQASGAEAEPGPAG [BTBD1] | 5.55 ± 0.16 | 5.52 ± 0.31 | – | –
MEGKPMRRCTNIRPGETGMDVTSR [KLHL20] | 4.34 ± 0.085 | 4.41 ± 0.19 | – | –

Sequence | protein stability index [1] | protein stability index [2] | protein stability index [3] | protein stability index [4]
MEPPGPVRGPLQDSSWYEPSAELV [ZNF232] | 4.79 ± 0.3 | 4.67 ± 0.43 | – | –
MFFKDRFYMRTNPFYPEVELNFIS [MMP1] | 2.44 ± 0.73 | 2.71 ± 0.68 | – | –
MFVFQDGRWVNENCRLQSPYFSPS [CBY2] | 2.36 ± 0.37 | 2.05 ± 0.42 | – | –
MGCHGFRDPFECNMCGYHSQDRYE [IKZF1] | 3.2 ± 0.11 | 3 ± 0.3 | – | –
MGGPAISMASPMSIPTNTMHYGS [CARM1] | – | – | 2.96 ± 0.25 | 2.95 ± 0.23
MHLARCRWASAPPLYTLIDVLKYS [ZSWIM9] | 2.94 ± 0.22 | 2.43 ± 0.35 | – | –
MHMVDLMSSIICEGDTVSQELLDT [PDS5B] | 3.6 ± 0.31 | 3.57 ± 0.14 | – | –
MHYQMSVTLKYEIKKLIYVHLVIW [JAGN1] | 3.1 ± 0.32 | 3.15 ± 0.8 | – | –
MKLFLDCLKEFPEKQELHRNMLGL [ZER1] | 2.35 ± 0.11 | 2.4 ± 0.35 | – | –
MKSAMRKLWSKKVSLAGKWLYHS [OR4A15] | – | – | 2.47 ± 1.1 | 2.59 ± 0.44
MLKIHRSDPQLIVQLRFCGRQPCG [TRADD] | 2.46 ± 0.73 | 1.92 ± 0.39 | – | –
MMHDQRTGPAWNVLMWTMLFLGQG [SOAT2] | 2.8 ± 0.93 | 2.65 ± 0.59 | – | –
MNLMNELKQNFSKSWHDMQTTTAY [TPD52L1] | 2.62 ± 0.34 | 2.47 ± 0.15 | – | –
MPHSVTLRGPSPWGFRLVGGRDFS [PDLIM4] | 2.61 ± 0.37 | 2.8 ± 0.23 | – | –
MQEDRDGSCSTVGGVGYGDSKDCI [ZNF277] | 5.04 ± 0.28 | 5.1 ± 0.18 | – | –
MQFLIRSHECKPEGYEFCHNRKVL [PPEF2] | 2.28 ± 0.34 | 2.55 ± 0.18 | – | –
MSADPHLASSLSPSQDERMRSPQN [NOL4L] | 5.17 ± 0.25 | 5.15 ± 0.24 | – | –
MSPGPLDALSSPTSVQEADETTRS [C2CD2L] | 5.35 ± 0.37 | 5.38 ± 0.15 | – | –
MSRVHGMHPKETTRQLSLAVKDGL [ZMYND11] | 3.83 ± 0.22 | 3.89 ± 0.4 | – | –
MSVGHLRLLSHDQVAMPYQWEYPY [JAGN1] | 2.11 ± 0.29 | 2.02 ± 0.4 | – | –
NAGLVWFFPWREAKPGSTEKGLPL [MFSD9] | 2.23 ± 0.18 | 2.16 ± 0.29 | – | –
NASFIDGYRQQKAYIATQGPLAET [PTPRD] | 3.46 ± 0.43 | 3.53 ± 0.49 | – | –

Sequence | protein stability index [1] | protein stability index [2] | protein stability index [3] | protein stability index [4]
NCFEITLELSCDKFPPEEELQREW [CPN1] | 2.77 ± 0.24 | 3.1 ± 0.22 | – | –
NDLLEILEIDDLDAIVPAVKKLKV [CEP70] | 2.4 ± 0.46 | 2.87 ± 0.27 | – | –
NGCEVKNRKSILSRHLNSQVKKTT [PHTF1] | 3.95 ± 0.24 | 4 ± 0.37 | – | –
NGDPESVASLHWDGGALLGVLQYR [ADAMTS4] | 2.29 ± 0.74 | 2.54 ± 0.35 | – | –
NGSDNLPSSAGSGDKPLSDPAPF [TPD52L2] | – | – | 5.44 ± 0.21 | 5.51 ± 0.18
NGSVGVKNSMENGRPPDPADWAVM [SAMD13] | 3.99 ± 0.26 | 4.06 ± 0.24 | – | –
NGTEDLPYAMKPIDYYTETKILQE [NSDHL] | 4.28 ± 0.17 | 4.22 ± 0.051 | – | –
NHGQVVSYLLKSGADKEILTTKGE [ANKRD40] | 4.08 ± 0.28 | 3.9 ± 0.26 | – | –
NICHVWHMNVEALPEWISCLIQKA [RNF180] | 2.01 ± 0.24 | 2.57 ± 0.38 | – | –
NIKPRRYLTVVFEHDAWFIFFMAA [SLC29A1] | 3.1 ± 0.48 | 2.48 ± 0.61 | – | –
NLLGEGQHKCDECGKSFTQSSGLI [ZSCAN9] | 3.66 ± 0.3 | 3.68 ± 0.28 | – | –
NLNAATDDPENKKTSSSSKAGFTA [CDC14A] | 5.17 ± 0.16 | 5.02 ± 0.062 | – | –
NLSEFQHVISRSPDFASSFKIVL [CIB1] | – | – | 2.29 ± 0.45 | 2.32 ± 0.44
NMQQPMNVMTQSFGAVNLSSPSNM [CLINT1] | 3.44 ± 0.17 | 3.66 ± 0.17 | – | –
NMSSSRGPLPVKRGPPPRSGGPPP [RBMX] | 4.41 ± 0.22 | 4.45 ± 0.45 | – | –
NNTLVALPIVAIENILSFMSYDEI [FBXO28] | 3.22 ± 0.33 | 3 ± 0.61 | – | –
NQSRCEMKTFVSPEAISPDLVKKI [TRIM15] | 3.98 ± 0.3 | 4.14 ± 0.37 | – | –
NSGTDQEQIHLLLSSQCFSNISRP [M1AP] | 2.98 ± 0.21 | 3.18 ± 0.27 | – | –
NTVLRFLDLKGNNLRAAGAEALGK [LRRC45] | 3.31 ± 0.27 | 3.28 ± 0.25 | – | –
NVYHSYDLPWFRTLSWYFLLCVNY [CDS2] | 2.93 ± 0.23 | 2.98 ± 0.28 | – | –
NYVLEEVDEAAAESPSFLSLRKGA [NCK2] | 4.75 ± 0.2 | 4.83 ± 0.13 | – | –
